Two molecules from CN112745389A (REYOUNG SUZHOU BIOPHARMACEUTICAL CO LTD, dated 2021) can be followed below.

Assay [1] deals with T1, 人IL-5蛋白 (human interleukin-5) (human, UniProt P05113 20-134).
T1 sequence (looked up): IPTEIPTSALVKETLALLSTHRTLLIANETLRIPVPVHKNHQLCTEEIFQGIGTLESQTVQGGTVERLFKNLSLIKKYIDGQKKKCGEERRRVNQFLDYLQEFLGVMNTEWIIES
Briefly: cell-based or functional assay.

Assay [2] has as its target T1, 人IL-5蛋白 (human interleukin-5). Briefly: affinity measurement (sensorgram, 1:1 binding model; Figure 3).

B1: RB0003-30E6D5 (antibody, V domains shown)
VH: EVQLQQSGAELVKPGASVKLSCTTSGFNIKDYFIHWVKQRTEQGLEWIGRIDPEDGETKYAPKFQGKATITADTSSNTAYLQLSSLTSEDTAVYYCVSYSTYPDYWGQGTTLTVSS
VL: HIVLTQSPALMSTSPGEKVTMTCSASSSVSYMYWYQQKPRSSPKPWIYLTSTLASGVPARFSGSGSGTSYSLTISSMEAEDAATYYCQQWSSTPFTFGSGTKLEIKR
Take B1: the “IC50(ng/mL), 阻断增殖 (TF-1 proliferation, CellTiter-Glo)” value in assay [1] is 16.3 ng/mL.

B2: 人源化32D12C12抗体 (humanized 32D12C12) (antibody, V domains shown)
VH: EVQLVESGGGLVQPGGSLKLSCAASGFTFNTYAMNWVRQASGKGLEWVGRIRSKTANFATFYADSVTDRFTISRDDSKNTLYLQMNSLKTEDTAVYYCVRHGAYYTYDGAMDYWGQGTTVTVSS
VL: DIQMTQSPSSLSASVGDRVTITCKASQDVRTAIAWYQQKPGKAPKLLIYWASTRHTGVPSRFSGSGSGTDYTLTISSLQPEDFATYYCQQHYSTPYTFGQGTKLEIK
As for B2, the binding result in assay [2] was “binds”.
